According to patent US9896489B2, “Family of synthetic polynucleotide-binding peptides and uses thereof” (Eastern Virginia Medical School, priority 2012, dated 2018):

Assays:
[1] = tested on: Tat transactivation of the HIV-1 LTR; test: Tat transactivation of HIV-1 LTR-luciferase in U-87 MG cells; format: cell-based; conditions: peptide added exogenously to the medium; clade B LTR and Tat
Protocol: The TZIP peptide's effect on Tat's ability to transactivate the HIV-1 LTR was tested. In this experiment, U-87 MG cells were transfected with the clade B HIV-1 LTR coupled to luciferase. They were also transfected to express Tat, clade B. In the absence of Tat transfection there is no luciferase activity. […] The results in FIG. 9B document inhibition of the HIV-1 LTR at low concentrations of peptide, levels which would be acceptable in humans.

[2] = tested on: human prostate cancer cell lines; test: Growth of prostate cancer cells treated with TZIP peptide; format: cell-based
[3] = tested on: normal human epithelial cells; test: Growth of normal epithelial cells treated with TZIP peptide; format: cell-based
[4] = tested on: U-87 MG cells; format: cell-based
[5] = tested on: ALS ssDNA (GGGGCC hexanucleotide repeat expanded at C9ORF72); test: Electrophoretic mobility shift assay with ALS ssDNA; format: binding
Protocol: Infrared oligonucleotides representing a GGGGCC hexanucleotide repeat expanded at C9ORF72 in ALS patients were custom ordered and are referred to as ALS ssDNA. 4% polyacrylamide gel electrophoresis was performed using IR-labeled oligonucleotides and imaged using the Li-Cor Odyssey IR imaging instrumentation and software.
Electrophoretic Mobility Shift Assay-Various combinations of Purα, Purβ, TZIP, and IR-labeled oligonucleotides were prepared in the 5× Johnson binding buffer (Bergemann, Andrew D and Johnson, Edward M (1992), The HeLa Pur Factor Binds Single-Stranded DNA at a Specific Element Conserved in Gene Flanking Regions and Origins of DNA Replication. Molecular and Cellular Biology, vol 12:3 (1257-1265), incorporated by reference herein in its entirety), adjusted to 5 mM DTT, 5 mM EDTA, and 0.5% Tween 20. 4% polyacrylamide gel electrophoresis was performed on samples and imaged with the Li-Cor Odyssey instrumentation and software. Densitometry was performed on the DNA concentration course experiments using the Li-Cor Odyssey software.
A Kd value obtained for Purβ was complex and not readily interpretable.

[6] = tested on: H82 cells; conditions: H82 cells treated with TZIP peptide as for cell counts
Protocol: Referring to FIG. 7, a subset of H82 cells was treated with the TZIP peptide and the dye trypan blue, which is excluded from live cells. The H82 cells were otherwise treated as previously described and H82 cells used as a control were untreated. The percentages of living cells are represented by solid lines, and the percentages of dead cells are represented by dotted lines.

[7] = tested on: H82 SCLC cells; test: H82 SCLC cell growth, hemocytometer cell counts; format: cell-based; conditions: 10^−12 M peptide
Protocol: (§1) The peptide was tested against SCLC cells in culture. The cell lines included H82, H146, and controls. The H82 cell line has amplified c-MYC genes and H146 has increased levels of expression of c-MYC. The controls were normal epithelial cells and HeLa cells (a cervical cancer cell line with no known changes in c-MYC).
H82 SCLC cells were grown in suspension in small cell culture wells in RPMI medium with 10% fetal bovine serum. At time 0, the TZIP peptide was added to the medium at a final concentration of 10^−12 M. Control cells received no peptide. The TZIP peptide was added as a stock solution of 200 μg in 200 μL of deionized water.

[8] = tested on: KG-1C cells; format: cell-based
[9] = tested on: FXS ssDNA (G-rich trinucleotide DNA repeats at FMR1); test: Electrophoretic mobility shift assay with FXS ssDNA; format: binding
Description: A GE Microspin GST purification module was used to purify GST-tagged Purα and Purβ from bacterial lysate. Polyacrylamide gel electrophoresis with SDS-Page gels and molecular markers were used to verify that GST, Purα, and Purβ were expressed and purified. Expressed proteins were detected using antibodies against Purα and Purβ, including monoclonal mouse anti-Pur antibody developed in Johnson laboratory (clone 10B12) and polyclonal antibody against Purβ (Abcam). Polyacrylamide gel electrophoresis with TBE buffer was used for gel-mobility shift assay. Infrared-labeled oligonucleotides representing G-rich trinucleotide DNA repeats at FMR1 in patients with Fragile X Syndrome (FXS) were custom ordered and are referred to herein as FXS ssDNA. Infrared-labeled oligonucleotide substrates in agarose and polyacrylamide gels were detected through the use of the Odyssey (LICOR) instrumentation and software. […] When Purα and Purβ are combined (FIG. 17), by increasing the amount of Purβ, the DNA is shifted more to the top of the gel. Therefore, there is more binding of the proteins to the DNA. […] In FIG. 19, TZIP enhances the mobility shift of ssDNA FXS in the presence of Purα.

[10] = tested on: SCLC cells; test: Growth of SCLC cell lines treated with TZIP peptide; format: cell-based
Protocol: as §1

[11] = tested on: HeLa cells; test: HeLa cell growth, hemocytometer cell counts; format: cell-based; conditions: treated as described for H82 cells
Protocol: This was expected based on the lack of changes in c-MYC in HeLa cell lines. HeLa cells were grown in suspension and either treated or untreated with the TZIP peptide as described above for the H82 cells. Points were taken at different times post treatment, and cells were counted using a hemocytometer. […] This difference was expected, as HeLa cells differ from SCLC cells in many aspects of tumor suppressor gene products and presence of oncogenes.

B1: novel synthetic Purα agonist peptide, 89 aa, SEQ ID NO: 1, with cell transport sequence YARAKRRQARRQIR (peptide)
chain: LASTFVTRDNKRYFMDLKENQRGRFMRVSQVGTRGYRNSLTVSYSVAWLEFRTHLCKLIDEYAKLQYARAKRRQARRQIRQQQQQQQEE
With B1 the “inhibition of Tat transactivation (luciferase)” value [1] was “transactivation is inhibited over a broad range of low concentrations”, the growth inhibition [2] was “effective at inhibiting growth of prostate cancer cells” and the “effect of treatment on normal cells” value [3] was “did not show any significant effects”. For the same molecule, the “effects on growth kinetics or morphology” value [4] was “did not display any effects on growth kinetics or morphology”, the “binding of ALS repeat (qualitative)” value ([5]; DNA concentration courses) was “strongly bind the ALS repeat in low concentrations” and the “effect of TZIP on Purα binding to ALS ssDNA” value ([5]; Purα and TZIP mixed) was “alter the binding activity of Purα”. For the same molecule, the “effect of TZIP on Purβ binding to ALS hexanucleotide repeat” value ([5]; Purβ and TZIP mixed) was “greatly stimulates binding of Purβ”, the Kd ([5]; densitometry of DNA concentration course) was 0.55 nM and the “concentration at which TZIP functions cooperatively with Purα to enhance binding to the GGGGCC repeat” value ([5]; with Purα) was “less than 1 μM”. The “cell killing (living/dead cells, trypan blue)” value [6] was “killed TZIP-treated H82 cells”, the “growth of treated cells (cell counts)” value ([7]; after three days) was “no further growth of the treated cancer cells was evident” and the “growth inhibition (cell counts)” value ([7]; one day post treatment) was “inhibitory effects of the peptide were evident”. The “effects on growth kinetics or morphology” value [8] was “did not display any effects on growth kinetics or morphology”, the “binding / mobility shift of ssDNA FXS (qualitative)” value [9] was “tightly binds the FXS trinucleotide expanded repeat” and the “order of binding ssDNA FXS” value [9] was “TZIP>Purα>Purβ”. For the same molecule, the “effect of TZIP on Purα binding to ssDNA FXS” value ([9]; in the presence of Purα) was “greatly stimulates Purα binding”, the “inhibitory effect on growth, compared with other cell types” value [10] was “consistently showed the greatest inhibitory effects” and the “effect on cell growth” value [11] was “little effect on the growth of HeLa cells”.
